Test results as given in the supplement of paper PMC9170038.

Tested on: MS2 coat protein
Assay: apparent KD of MS2 coat protein; designed switch direction (-1 OFF switch, 1 ON switch): -1; higher = weaker reporter binding
Outline: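 SNAP-549-labelled MS2 coat protein was titrated, doubling from 0.7 or 1.5 nM to 3 µM, over designed RNA switches transcribed on Illumina chips by stalled E. coli RNA polymerase. Runs were done without input, with 200 uM small-molecule ligand, or with an oligonucleotide input. Apparent KD is the per-design median over clusters of curve-fitted normalised fluorescence.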

[1] = input ligand: microRNA oligo, concentration not stated
[2] = Eterna round: R95, input ligand: microRNA oligo, concentration not stated
[3] = Eterna round: R95, input ligand: FMN 200 uM
[4] = Eterna round: R95, input ligand: none

Sequence | apparent KD of MS2 coat protein (input ligand: FMN 200 uM) [nM] | apparent KD of MS2 coat protein (input ligand: none) [nM] | apparent KD of MS2 coat protein [1] [nM] | apparent KD of MS2 coat protein [2] [nM] | apparent KD of MS2 coat protein [3] [nM] | apparent KD of MS2 coat protein [4] [nM]
AAACUCCGGGUGAGGAUAUCUAGCAUCAAGACGCGAGAGAAGGCACUUGAGGAUCACCCAAGUACGUGGCCUAA [Quare] (Eterna round: R97, puzzle: Brourd's mod of Exclusion 4) | 153 | 99.9 | – | – | – | –
UGAGACUGAGGAUAUACUUGCCCAUAAAGUGGGUAGUGGGUACAUGAGGAUCACCCAUGUAGAAGGCAGCCUCG [Omei Repeat Sequence v3] (Eterna round: R97, puzzle: Exclusion 2) | 597 | 46.3 | – | – | – | –
ACCUCACAUGAGGAUCACCCAUGUCAGGAUAUUCAAACAGGCGAAACUCCGCCUUCUCGAAGAAGGGACAUUAA [Israon] (Eterna round: R96, puzzle: Exclusion 1) | 82.1 | 17.7 | 14.6 | – | – | –
CGAUAGAUAGGAUAUAUAAUUGGAAUUCACCUUGGGCGGCUACAUGAGGAUCACCCAUGUAGAAGGGUCUUCGA [Eternabot (L1) Solution 80] (Eterna round: R97, puzzle: Exclusion 2) | 16.3 | 18.5 | – | – | – | –
GGAUCGAAAGUGAGGAUAUACCUAUGGAUACAUAGGUAGAAGGCACAUGAGGAUCACCCAUGUUCCUACGGUCC [Eli bmx4 4.10] (Eterna round: R97, puzzle: Brourd's mod of Exclusion 4) | 114 | 18.4 | – | – | – | –
CCUCCACAGUAGGAUAUCAUCAAACUAUUGUGAUGAGAAGGACUGACAUGAGGAUCACCCAUGUUAACGUGAUG [Mod of Brourd 7 - Jieux - Exclusion 6] (Eterna round: R97, puzzle: Exclusion 6) | 25.3 | 22.9 | – | – | – | –
UUGAAGUCAUCAGGAUAUAGUUUUAAUGUCAUGCUUAAGUUCUUACAUGAGGAUCACCCAUGUCGCUAGAAGGGAUUAUAGAUU [JR_ExcNG2_Sub078] (Eterna round: R96, puzzle: Exclusion NG 2) | 66.8 | 67.7 | 42.6 | – | – | –
GCACGAAGUGUAGGAUAUCUGUGCGAUUAGCUCAGAGAAGGACACAUGAGGAUCACCCAUGUGUUCCAAUACCCAAAUACGUGC [Eli exng1 - 061] (Eterna round: R96, puzzle: Exclusion NG 1) | 11 | 11.3 | 7.69 | – | – | –
UUUUACCGAGGAUAUACAUAUAAAUAAUAAUCCUCAUUAUUACAUGAGGAUCACCCAUGUAGAAGGCGGAUUUU [Mat - Exclusion 2 - Mod of Hog - D88] (puzzle: Exclusion 2) | – | – | – | 96.3 | – | –
CACCGUUAGAGAGGAUAUCGUACAUGAGGAUCACCCAUGUAAUAAAUGAGAAUUUCGGAUGUCUGCGAGAAGGCUCGAAUCGGC [Ostracism 32 - Jieux - Exclusion NG 2] (Eterna round: R96, puzzle: Exclusion NG 2) | – | – | 23 | – | – | –
CGGAUGUUAGGAUAUUAGUAGUAGUCAGAAAAGACUAUUACUGAGAAGGAACAUGAGGAUCACCCAUGUAUCCG [Mat - Exclusion 4 - Eli Mod - D45] (Eterna round: R97, puzzle: Exclusion 4) | 33.1 | 15.1 | – | – | – | –
GGUCCGUCAGUGAGGAUAUUGAGGAGGAGGAGGGACAAGAAGGCACAUGAGGAUCACCCAUGUAGGGACGGACG [Alacar 1st] (Eterna round: R97, puzzle: Brourd's mod of Exclusion 4) | 46.4 | 21.2 | – | – | – | –
CCAGAGAGCGAAGGAUAUUCUGUUCAAUGGGUCGACCUAGACAUGAGGAUCACCCAUGUCGCCCGGGAGAAGGUCGCAAGGAUC [Eternabot solution 18] (Eterna round: R96, puzzle: Exclusion NG 2) | 18.7 | 18.4 | 13.3 | – | – | –
GCAGCAUAGAUAACAGUCUGAUACAUGAGGAUCACCCAUGUACAGGAUAUGGUCUGGAUUACAGGCCAGAAGGGUACAAGCUGC [Eli exng3 - 014] (Eterna round: R96, puzzle: Exclusion NG 3) | 10.9 | 12.7 | 9.69 | – | – | –
GGCCGUAAUAAGGAUAUCACUAGCUGCGGCUAGUGAGAAGGUAUUACAUGAGGAUCACCCAUGUGGUCAGGCCA [E6/4-B3] (Eterna round: R97, puzzle: Exclusion 6) | 1060 | 284 | – | – | – | –
AAUUAUUUUUGAGGAUAUUGUGGUGAAACACCACAAGAAGGCAAGAUACACAUGAGGAUCACCCAUGUGAGCCUGAUGCUUAUG [Ex NG1 #53] (Eterna round: R96, puzzle: Exclusion NG 1) | – | – | 13.1 | – | – | –

Sequence | apparent KD of MS2 coat protein (input ligand: FMN 200 uM) [nM] | apparent KD of MS2 coat protein (input ligand: none) [nM] | apparent KD of MS2 coat protein [1] [nM] | apparent KD of MS2 coat protein [2] [nM] | apparent KD of MS2 coat protein [3] [nM] | apparent KD of MS2 coat protein [4] [nM]
CAUUGUUAUCGAGGAUAUCGUAUUGAGAUUCUACGAGAAGGCGGACUAAACAUGAGGAUCACCCAUGUGGGACGGAUGCUUGGG [Ex NG1 #31] (Eterna round: R96, puzzle: Exclusion NG 1) | 30.7 | 28.1 | 25.8 | – | – | –
UUAUACGGUGAGGAUAUCUCCACUAAAGUGUGAAGAGAAGGCGCUACAUGAGGAUCACCCAUGUCUAUGGGCAG [Ex-6 Malc#16] (puzzle: Exclusion 6) | – | – | – | 262 | 905 | 320
GAUUAGACUAAGGAUAUUACGAGCUCUGUGCCGUGAGAAGGUAGCACAUGAGGAUCACCCAUGUGACCAUCAUG [Eternabot (L2) Solution 81] (Eterna round: R97, puzzle: Exclusion 6) | 180 | 58.6 | – | – | – | –
AACUGAUCUUGAGGAUAUCAAACACAUGAGGAUCACCCAUGUCACGAGACGGUGCUUUCCAGGAGUGAGAAGGUAAGCAGCGAG [Eternabot solution 44] (Eterna round: R96, puzzle: Exclusion NG 2) | 31 | 37.1 | 28 | – | – | –
UGCCAAGCAGGAUAUGCCCGGAAUAACAUGAGGAUCACCCAUGUGACCGAUUGAUGUUCUGCAGAAGGGCAUGGAA [Mat - Exclusion 5 - Eli Mod - D2] (Eterna round: R97, puzzle: Exclusion 5) | 17.2 | 35.7 | – | – | – | –
CGGCAAAGGUAGGAUAUGCUAGACGAUAGUCUAGCAGAAGGACCUACAUGAGGAUCACCCAUGUGUCCAAGCCG [Mat - Exclusion 6 - Eli Mod - D19] (Eterna round: R97, puzzle: Exclusion 6) | 27.9 | 105 | – | – | – | –
UGACAGGCUAGACGAACAAACAUGAGGAUCACCCAUGUCAUUCCAUGUCUGCGUCAUAAGUAGAUGCUCGUAUAUCG [Eternabot (Original) Solution 33] (Eterna round: R97, puzzle: Sensor, turn-off variant 1) | 16.6 | 18.1 | – | – | – | –
AGCGCCAUCGUGAGAUGGCGUAUUACAUGAGGAUCACCCAUGUAGGAUAUCGAUUGCUUUGCAGUCGAGAAGGACAUGUUCUUG [JL ENG3 3.80 Mod B] (Eterna round: R96, puzzle: Exclusion NG 3) | – | – | 39.4 | – | – | –
UUUGAUAGCACAGGAUAUUGUGAUUUGAGUUGACAAGAAGGGUGUACAUGAGGAUCACCCAUGUAAUGGUUGCCUCGUUGACUU [JR_ExcNG1_Sub006] (Eterna round: R96, puzzle: Exclusion NG 1) | 48.8 | 46.8 | 36 | – | – | –
UAUUCGCAAGCGAGAUCCCACAUGAGGAUCACCCAUGUGCUCGUCUUAUAAGGUACUGUGACGAUAGUCACGGUACC [Mat - Sensor, turn-off var - Eli Mod - D81] (Eterna round: R97, puzzle: Sensor, turn-off variant 1) | 16.7 | 16.3 | – | – | – | –
CAUACUGAAGUUAGGAUAUUCGGACGAAUACGGAUGGAGAAGGGACAUGAGGAUCACCCAUGUAGAUAGUAAAG [EX-4 Malc #13] (puzzle: Brourd's mod of Exclusion 4) | – | – | – | 20.7 | 20.1 | 19.8
CGGUACUGAGGAUAUACAUGAGGAUCACCCAUGUGUUCUAGCUAGCGUACUGGCAUUAGUAGAAGGCGGUGCUG [JL-ex3-3.18 Brourd mod] (puzzle: Exclusion 3) | – | – | – | 15.4 | 28.9 | 17.2
CCCGCAGGUUUUUUGCUCGACAUGAGGAUCACCCAUGUUGCGUGGGUUGUGUGUGUGCGGUGUAUAUAUAUGGUCCU [-24.5, -48 kcal, A 14%] (Eterna round: R97, puzzle: Sensor, turn-off variant 1) | 305 | 371 | – | – | – | –
AGUCAGGCGGUAGGAUAUCCAUAUCGAGUGACCCUUUCAUAACAUGAGGAUCACCCAUGUCGGUGGGAGAAGGGCCGUAAGGCA [Mat - Exclusion NG 2 - Mod of JL - D69] (Eterna round: R96, puzzle: Exclusion NG 2) | 53.6 | 41.1 | 30.5 | – | – | –
GCGGUAUUCCCUGGAGUACCAUACAUGAGGAUCACCCAUGUAUAGGAUAUUGCAGGAGACAGCUGCGAGAAGGGUACAGGGUGU [Dierceza] (Eterna round: R96, puzzle: Exclusion NG 3) | 26.6 | 15.9 | 14.4 | – | – | –
UAUAUAUAGUAAGGAUAUGUAUAUAUUUCAUAAACAGAAGGUACUGACAUGAGGAUCACCCAUGUUUUAGUGUGGGCAUGUAGA [JMF's solution 65] (Eterna round: R96, puzzle: Exclusion NG 1) | – | – | 48 | – | – | –
